Test results: patent US11156615B2 (priority 2015, dated 2021)

Tests used:
[1] = Glucose-dependent fluorescence emission intensity spectra of conjugates (Nanodrop3300); assay type: biochemical; details: Nanodrop3300
Text: Semi-synthetic FRSs were engineered by site-specifically attaching thiol-reactive, environmentally sensitive fluorophores that respond to ligand-mediated conformational changes. Identification of FRS candidates that are useful for sensing applications comprises three steps: • 1. Cysteine scan. Mutant glucose-binding proteins containing single cysteines are constructed for site-specific attachment of thiol-reactive fluorophores. […] Candidate positions fall into three classes: endosteric, replacing a residue that contacts the ligand directly; peristeric, located at the rim of the binding site; allosteric (Marvin et al. 1997 Proc Natl Acad Sci USA, 94, 4366-71; Marvin 1998 J Am Chem Soc, 120, 7-11), located outside the binding site at sites that undergo local structural changes in concert with the hinge-bending motion. • 2. Fluorophore screening. Thiol-reactive, environmentally sensitive fluorophores are attached to each cysteine mutant prepared in step 1. • 3. Evaluation of the glucose-mediated change of all the fluorescent conjugates prepared in step 2. Responses to ligand binding in which there is both a change in fluorescence emission intensity and spectral shape was essential for chemometric applications, because such changes enable ratiometric measurements. Changes in spectral shape typically are accompanied by a shift in the wavelength of the emission intensity maxima. Three classes of fluorescent responses are possible: • i. No response. • ii. Monochromatic response (emission intensity increases or decreases without a change in spectral shape) • iii.

[2] = Thermostability: mid-point thermal denaturation temperature (Tm) from temperature-dependent fluorescence (Roche LightCycler); assay type: physicochemical; details: apo-protein
Procedure, shortened: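 Unfolding tracked by SYPRO binding to denatured protein, fluorescence at 488 nm/510 nm recorded on a LightCycler as temperature rose in 1 K steps. Tm taken as denaturation mid-point, for protein in solution or immobilized on Ni-NTA or NHS-agarose beads.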

[3] = Glucose binding: isothermal fluorescence titrations, ratiometric (appKd) and monochromatic (trueKd) fits; parameters: key to Glucose appKd / Glucose trueKd: nb, no bonding; details: room temperature
Text: 2 For a single glucose-binding site, the fractional saturation is given by
[formula] where ^apoIλ2 and ^satIλ2 are the emission intensities of the monochromatic signal at wavelength λ2 of the ligand-free and ligand-bound protein, respectively.

[4] = Galactose binding: isothermal fluorescence titrations of conjugates; parameters: key to Galactose trueKd: nb, no bonding; details: for S, selectivity = trueKd(galactose)/trueKd(glucose): S > 1, selective for glucose; for Kd: read-out: Galactose trueKd; for Kd / Galactose trueKd: monochromatic titration curves, room temperature
[5] = Badan conjugate of ttGGBP.17C mutant
[6] = read-out: Glucose appKd, Badan conjugate, dichromatic ratiometry
[7] = read-out: Glucose trueKd, Badan conjugate, monochromatic titration curves
[8] = Acrylodan conjugate of ttGGBP.17C mutant
[9] = read-out: Glucose appKd, Acrylodan conjugate, dichromatic ratiometry
[10] = read-out: Glucose trueKd, Acrylodan conjugate, monochromatic titration curves

| Kd [3, 6] [µM] | Kd [3, 7] [µM] | S, selectivity = trueKd(galactose)/trueKd(glucose) ([4]; Badan conjugate) | Kd ([4]; Badan conjugate) [mM] | Galactose trueKd ([4]; Badan conjugate) | Kd [3, 9] [µM] | Kd [3, 10] [µM] | S, selectivity = trueKd(galactose)/trueKd(glucose) ([4]; Acrylodan conjugate) | Kd ([4]; Acrylodan conjugate) [mM] | Glucose appKd ([3]; Badan conjugate, dichromatic ratiometry) | Glucose trueKd ([3]; Badan conjugate, monochromatic titration curves) | Molecule | Type of fluorescence response to glucose [1, 5] | apoTm ([2]; Badan conjugate) [K] | Type of fluorescence response to glucose [1, 8] | apoTm ([2]; Acrylodan conjugate) [K] |
| --- | --- | --- | --- | --- | --- | --- | --- | --- | --- | --- | --- | --- | --- | --- | --- |
| 3300 | 3600 | 1 | 3.6 |  |  |  |  |  |  |  | ttGGBP17C.6: affinity-tuning mutant, 17C background, SEQ ID NO: 71 (protein, ttGGBP17C.6 (affinity-tuning mutant, 17C background (Table 6) with signal peptide replaced with M and GGSHHHHHH at C-terminus)) MKQLNIGVAIYKFDETCMTGVRNAMTAEAQGKAKLNMVDSQNSQPTQNDQVDLFITKKMNALAINPVDRTAAGTIIDKAKQANIPVVFFNREPLPEDMKKWDKVYYVGAKAEQSGILQGQIMADYWKAHPEADKNHDGVMQYVMLMGQPGHQDAILRTQYSIQTVKDAGIKVQELAKDYANWDRVTAHDKMAAWLSSFGDKIEAVFANNDDMALGAIEALKSAGYFTGNKYIPVVGVDATAPGIQAIKDGTLLGTVLNDAKNQAKATFNIAYELAQGITPTKDNIGYDITDGKYVWIPYKKITKDNISDAEQGGSHHHHHH | r(h) (r(h), ratiometric (hypsochromic shift)) | 346 |  |  |
| 900 | 900 | 16 | 14 |  |  |  |  |  |  |  | ttGGBP17C.26: affinity-tuning mutant, 17C background, SEQ ID NO: 84 (protein, ttGGBP17C.26 (affinity-tuning mutant, 17C background (Table 6) with signal peptide replaced with M and GGSHHHHHH at C-terminus)) MKQLNIGVAIYKFDDTCMTGVRNAMTAEAQGKAKLNMVDSQNSQPTQNDQVDLFITKKMNALAINPVDRTAAGTIIDKAKQANIPVVFFNREPLPEDMKKWDKVYYVGAKAEQSGILQGQIMADYWKAHPEADKNHDGVMQYVMLMGQPGHQDAILRTQYSIQTVKDAGIKVQELAKDYANWDRVTAHDKMAAWLSSFGDKIEAVFANNDDMALGAIEALKSAGYFTGNKYIPVVGVDATAPGIQAIKDGTLLGTVLNDWKNQAKATFNIAYELAQGITPTKDNIGYDITDGKYVWIPYKKITKDNISDAEQGGSHHHHHH | r(h) (r(h), ratiometric (hypsochromic shift)) | 346 | i (i, intensity increase only) |  |
| 15000 | 18000 |  |  | nb^c |  |  |  |  |  |  | ttGGBP17C.23: affinity-tuning mutant, 17C background, SEQ ID NO: 81 (protein, ttGGBP17C.23 (affinity-tuning mutant, 17C background (Table 6) with signal peptide replaced with M and GGSHHHHHH at C-terminus)) MKQLNIGVAIYKFDDTCMTGVRNAMTAEAQGKAKLNMVDSQNSQPTQNDQVDLFITKKMNALAINPVDRTAAGTIIDKAKQANIPVVFFNREPLPEDMKKWDKVYYVGAKAEQSGILQGQIMADYWKAHPEADKNHDGVMQYVMLMGQPGHQDAILRTQYSIQTVKDAGIKVQELAKDYANWDRVTAHDKMAAWLSSFGDKIEAVFANNDDMALGAIEALKSAGYFTGNKYIPVVGVDATAPGIQAIKDGTLLGTVLNDQKNQAKATFNIAYELAQGITPTKDNIGYDITDGKYVWIPYKKITKDNISDAEQGGSHHHHHH | i (i, intensity increase only) | 344 | i (i, intensity increase only) |  |
|  |  |  |  |  | 610 | 600 | 0.43 | 0.26 |  |  | ttGGBP17C.8: affinity-tuning mutant, 17C background, SEQ ID NO: 73 (protein, ttGGBP17C.8 (affinity-tuning mutant, 17C background (Table 6) with signal peptide replaced with M and GGSHHHHHH at C-terminus)) MKQLNIGVAIYKFDDNCMTGVRNAMTAEAQGKAKLNMVDSQNSQPTQNDQVDLFITKKMNALAINPVDRTAAGTIIDKAKQANIPVVFFNREPLPEDMKKWDKVYYVGAKAEQSGILQGQIMADYWKAHPEADKNHDGVMQYVMLMGQPGHQDAILRTQYSIQTVKDAGIKVQELAKDYANWDRVTAHDKMAAWLSSFGDKIEAVFANNDDMALGAIEALKSAGYFTGNKYIPVVGVDATAPGIQAIKDGTLLGTVLNDAKNQAKATFNIAYELAQGITPTKDNIGYDITDGKYVWIPYKKITKDNISDAEQGGSHHHHHH |  |  | r(h) (r(h), ratiometric (hypsochromic shift)) | 348 |
|  |  |  |  | nb^e |  |  |  |  | nb^e | nb^e | ttGGBP17C.20: affinity-tuning mutant, 17C background, SEQ ID NO: 78 (protein, ttGGBP17C.20 (affinity-tuning mutant, 17C background (Table 6) with signal peptide replaced with M and GGSHHHHHH at C-terminus)) MKQLNIGVAIYKFDDTCMTGVRNAMTAEAQGKAKLNMVDSQNSQPTQNDQVDLFITKKMNALAINPVDRTAAGTIIDKAKQANIPVVFFNREPLPEDMKKWDKVYYVGAKAEQSGILQGQIMADYWKAHPEADKNHDGVMQYVMLMGQPGHQDAILRTQYSIQTVKDAGIKVQELAKDYANWDRVTAHDKMAAWLSSFGDKIEAVFANNDDMALGAIEALKSAGYFTGNKYIPVVGVDATAPGIQAIKDGTLLGTVLSDAKNQAKATFNIAYELAQGITPTKDNIGYDITDGKYVWIPYKKITKDNISDAEQGGSHHHHHH |  | 344 | d (d, intensity decrease only) |  |
| 200 | 300 | 33 | 8.8 |  |  |  |  |  |  |  | ttGGBP17C.27: affinity-tuning mutant, 17C background, SEQ ID NO: 85 (protein, ttGGBP17C.27 (affinity-tuning mutant, 17C background (Table 6) with signal peptide replaced with M and GGSHHHHHH at C-terminus)) MKQLNIGVAIYKFDDTCMTGVRNAMTAEAQGKAKLNMVDSQNSQPTQNDQVDLFITKKMNALAINPVDRTAAGTIIDKAKQANIPVVFFNREPLPEDMKKWDKVYYVGAKAEQSGILQGQIMADYWKAHPEADKNHDGVMQYVMLMGQPGHQDAILRTQYSIQTVKDAGIKVQELAKDYANWDRVTAHDKMAAWLSSFGDKIEAVFANNDDMALGAIEALKSAGYFTGNKYIPVVGVDATAPGIQAIKDGTLLGTVLNDFKNQAKATFNIAYELAQGITPTKDNIGYDITDGKYVWIPYKKITKDNISDAEQGGSHHHHHH | i (i, intensity increase only) | 346 |  |  |
| 750 | 1000 | 0.64 | 0.64 |  | 300 | 300 | 0.91 | 0.3 |  |  | ttGGBP17C.7: affinity-tuning mutant, 17C background, SEQ ID NO: 72 (protein, ttGGBP17C.7 (affinity-tuning mutant, 17C background (Table 6) with signal peptide replaced with M and GGSHHHHHH at C-terminus)) MKQLNIGVAIYKFDNTCMTGVRNAMTAEAQGKAKLNMVDSQNSQPTQNDQVDLFITKKMNALAINPVDRTAAGTIIDKAKQANIPVVFFNREPLPEDMKKWDKVYYVGAKAEQSGILQGQIMADYWKAHPEADKNHDGVMQYVMLMGQPGHQDAILRTQYSIQTVKDAGIKVQELAKDYANWDRVTAHDKMAAWLSSFGDKIEAVFANNDDMALGAIEALKSAGYFTGNKYIPVVGVDATAPGIQAIKDGTLLGTVLNDAKNQAKATFNIAYELAQGITPTKDNIGYDITDGKYVWIPYKKITKDNISDAEQGGSHHHHHH | d (d, intensity decrease only) | 347 | d (d, intensity decrease only) | 348 |
